Results on three substances are retold here after patent US20190070251A1.

The target of assay [1] is GPR54 G-Protein coupled receptor (cloned human GPR54) (human) (UniProt Q969F8). As to the kind of experiment: cell-based or functional assay.
Assay [2] deals with human δ opioid receptor (human) (UniProt P41143). As to the kind of experiment: Kd of the radioligand, previously determined under these assay conditions; membranes of CHO-K1 cells with recombinant human δ opioid receptor (OGF series).
Assay [3] shares this target. As to the kind of experiment: Kd of the radioligand, previously determined under these assay conditions; membranes of CHO-K1 cells with recombinant human δ opioid receptor (biphalin series).

Sequence of human δ opioid receptor (human) (P41143 whole entry, stated change not applied): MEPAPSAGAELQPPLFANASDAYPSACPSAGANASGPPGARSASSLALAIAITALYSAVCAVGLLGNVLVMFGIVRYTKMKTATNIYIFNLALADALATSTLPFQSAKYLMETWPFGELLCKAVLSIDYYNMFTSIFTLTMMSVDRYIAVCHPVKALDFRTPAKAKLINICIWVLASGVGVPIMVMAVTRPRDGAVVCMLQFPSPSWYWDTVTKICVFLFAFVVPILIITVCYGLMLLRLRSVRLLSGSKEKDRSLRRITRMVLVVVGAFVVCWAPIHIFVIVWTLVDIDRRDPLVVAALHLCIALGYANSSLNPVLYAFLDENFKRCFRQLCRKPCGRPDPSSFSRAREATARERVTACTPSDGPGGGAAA

Regarding Kisspeptin-10 (peptide), in assay [1], the EC50 (nM) of agonist activation at GPR54 (FLIPR calcium flux) came to 10 nM and the Fold change compared to metastin is 1 fold.

As to [3H] DPDPE (peptide), the values for the equilibrium dissociation constant (Kd) in assay [2] and in assay [3] were 3 nM and 3.9 nM, respectively.

“mono-[mPEG-SBC-30K]-[Kisspeptin-10] (peptide)”: in assay [1], the EC50 (nM) of agonist activation at GPR54; time of release 2 h is 200 nM.

What is called Kd is the equilibrium constant for the complex coming apart.
